What was measured:
[1] = target: HALO-FhM28B (E413M) (Fasciola hepatica); assay: SEC; final purification step on a Superose 6 column, 20 mM MOPS, 150 mM NaCl, pH 7.4; elution peak compared with the expected dimeric mass
[2] = target: HALO-FhM28B (Fasciola hepatica M28B metalloprotease, wild type, with N-terminal His-Strep-HALO tag) (Fasciola hepatica); assay: as above

| Substance | stoichiometry N [1] | stoichiometry N [2] |
| --- | --- | --- |
| HALO-FhM28B (E413M) (enzyme) | 2 | – |
| HALO-FhM28B (Fasciola hepatica M28B metalloprotease, wild type, with N-terminal His-Strep-HALO tag) (enzyme) | – | 2 |
